The source of these data is article PMC7841161, “APE1 distinguishes DNA substrates in exonucleolytic cleavage by induced space-filling”.

Data set [1] deals with T1, mAPE1 full-length (mouse, UniProt P28352 1-317). Description: EMSA; 50 mM EDTA; similar to blunt; EMSA: 50 mM EDTA, 20 mM Tris-HCl pH 7.0, 120 mM NaCl, on ice 10 min + 10 min, FAM-labeled substrates, TBE native gel. Conditions: protein: recombinant, label: FAM.
The target of data set [2] is mAPE1 in recessed crystal (mouse, UniProt P28352 31-317). Description: X-ray crystallography; product complex; EMSA: 50 mM EDTA, 20 mM Tris-HCl pH 7.0, 120 mM NaCl, on ice 10 min + 10 min, FAM-labeled substrates, TBE native gel. Conditions: protein: recombinant; 2 copies of one strand, 2-nt 5' overhangs; central A-A from self-pairing. (In EMSA bound probe runs differently from free probe, usually more slowly.)

Data set [3] has as its target mAPE1 in blunt-ended crystal (mouse, UniProt P28352 40-317). Described as above. Conditions: protein: recombinant; chain copies: 2; 2 copies of one strand, 1-nt 5' overhangs; central A-A from self-pairing.
Data set [4] addresses T1, mAPE1 full-length. Description: EMSA; 50 mM EDTA; complex visible at 1 uM mAPE1; EMSA: 50 mM EDTA, 20 mM Tris-HCl pH 7.0, 120 mM NaCl, on ice 10 min + 10 min, FAM-labeled substrates, TBE native gel. Conditions: protein: recombinant, label: FAM.
For data set [5], the target named is T1, mAPE1 full-length. Kind of data set: EMSA; 50 mM EDTA; weak low-MW complex seen; EMSA: 50 mM EDTA, 20 mM Tris-HCl pH 7.0, 120 mM NaCl, on ice 10 min + 10 min, FAM-labeled substrates, TBE native gel. Conditions: protein: recombinant; label: FAM; 3 strands, nick between strands 1 and 2.
For data set [6], the target named is T1, mAPE1 full-length. Description: EMSA; 50 mM EDTA; extra low-MW complex at 0.5 uM, higher affinity than ends; EMSA: 50 mM EDTA, 20 mM Tris-HCl pH 7.0, 120 mM NaCl, on ice 10 min + 10 min, FAM-labeled substrates, TBE native gel. Conditions: protein: recombinant; label: FAM; 3 strands, 1-nt gap between strands 1 and 2.
For data set [7], the target named is T1, mAPE1 full-length. Kind of data set: EMSA; 50 mM EDTA; mostly complexed at 5 uM, stronger than blunt; EMSA: 50 mM EDTA, 20 mM Tris-HCl pH 7.0, 120 mM NaCl, on ice 10 min + 10 min, FAM-labeled substrates, TBE native gel. Conditions: protein: recombinant; label: FAM; 5' overhang 20 nt on strand 2.

T1 sequence (P28352 whole entry): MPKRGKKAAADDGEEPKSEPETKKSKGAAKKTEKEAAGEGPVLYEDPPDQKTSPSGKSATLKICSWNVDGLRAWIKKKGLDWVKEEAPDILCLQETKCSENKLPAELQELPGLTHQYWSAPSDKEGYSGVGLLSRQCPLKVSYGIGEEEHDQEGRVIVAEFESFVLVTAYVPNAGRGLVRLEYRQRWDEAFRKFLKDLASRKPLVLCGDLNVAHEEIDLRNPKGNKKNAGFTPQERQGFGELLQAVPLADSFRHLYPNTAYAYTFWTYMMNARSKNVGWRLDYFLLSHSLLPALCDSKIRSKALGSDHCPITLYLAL
mAPE1 in recessed crystal, sequence (P28352 31-317): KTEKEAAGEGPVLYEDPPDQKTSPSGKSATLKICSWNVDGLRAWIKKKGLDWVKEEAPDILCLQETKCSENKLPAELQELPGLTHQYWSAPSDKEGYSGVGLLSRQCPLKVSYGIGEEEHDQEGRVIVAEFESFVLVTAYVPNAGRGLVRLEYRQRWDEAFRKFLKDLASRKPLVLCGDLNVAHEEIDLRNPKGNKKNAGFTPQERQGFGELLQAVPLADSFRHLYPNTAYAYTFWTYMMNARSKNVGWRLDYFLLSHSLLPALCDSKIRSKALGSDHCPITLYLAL
mAPE1 in blunt-ended crystal, sequence (P28352 40-317): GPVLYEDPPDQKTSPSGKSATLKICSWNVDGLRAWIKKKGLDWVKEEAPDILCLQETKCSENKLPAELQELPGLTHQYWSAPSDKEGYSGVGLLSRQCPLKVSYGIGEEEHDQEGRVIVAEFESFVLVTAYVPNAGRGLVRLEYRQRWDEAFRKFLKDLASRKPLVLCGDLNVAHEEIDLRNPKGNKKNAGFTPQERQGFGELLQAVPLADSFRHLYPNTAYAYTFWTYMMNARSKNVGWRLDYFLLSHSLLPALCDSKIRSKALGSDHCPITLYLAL

B1: dsDNA 20 mer 2 nt mismatch (dsDNA)
DNA 1: ACTGGACAAATACTCCGAGG
DNA 2: AATCGGAGTATTTGTCCAGT
Consider B1, for which the binding result in the data set with mAPE1 full-length [1] (2 nt mismatch at 3' end of strand 1) is reported as “binds”.

B2: recessed dsDNA product (crystal) (dsDNA)
DNA 1: GCGTAATAC
DNA 2: GCGTAATAC
B2: the binding result in data set [2] is “binds”.

B3: dsDNA 20 mer 1 nt mismatch (dsDNA)
DNA 1: ACTGGACAAATACTCCGAGG
DNA 2: ACTCGGAGTATTTGTCCAGT
Turning to B3, the binding result in the data set with mAPE1 full-length [1] (1 nt mismatch at 3' end of strand 1) is on record as “binds”.

B4: blunt-ended dsDNA product (crystal) (dsDNA)
DNA 1: CGTAATAC
DNA 2: CGTAATAC
B4: the binding result in data set [3] is recorded as “binds”.

B5: recessed dsDNA 5 nt 5' overhang (dsDNA)
DNA 1: ACTGGACAAATACTCCGAGG
DNA 2: ATCACCCTCGGAGTATTTGTCCAGT
For B5, the binding result with mAPE1 full-length [4] (5' overhang 5 nt on strand 2) is listed as “binds”.

B6: blunt-ended dsDNA 20 bp (dsDNA)
DNA 1: ACTGGACAAATACTCCGAGG
DNA 2: CCTCGGAGTATTTGTCCAGT
For the molecule B6, in the data set with mAPE1 full-length [4] (blunt), the binding result is on record as “binds”.

B7: nicked dsDNA 40 mer 5'-OH (dsDNA)
DNA 1: ACTGGACAAATACTCCGAGG
DNA 2: GTGATTAGTGAAGCGTGCTC
DNA 3: GAGCACGCTTCACTAATCACCCTCGGAGTATTTGTCCAGT
modifications: 5'-OH at nick
Take B7: the binding result with mAPE1 full-length [5] is recorded as “binds”.

B8: 1-nt gapped dsDNA 40 mer, matched (dsDNA)
DNA 1: ACTGGACAAATACTCCGAGG
DNA 2: TGATTAGTGAAGCGTGCTC
DNA 3: GAGCACGCTTCACTAATCACCCTCGGAGTATTTGTCCAGT
modifications: 5'-OH or 5'-phosphate at gap margin (not stated which for EMSA)
For B8, the binding result in the data set with mAPE1 full-length [6] is on record as “binds”.

B9: recessed dsDNA 20 nt 5' overhang (dsDNA)
DNA 1: ACTGGACAAATACTCCGAGG
DNA 2: GAGCACGCTTCACTAATCACCCTCGGAGTATTTGTCCAGT
In the case of B9, the binding result with mAPE1 full-length [7] is reported as “binds”.
